The term Km denotes the concentration of substrate that gives half-maximal velocity. By kcat is commonly meant the maximal rate divided by the concentration of active sites. By kcat/Km is commonly meant the second-order rate constant that governs catalysis at low substrate concentration.

Substrate in series [1]: C[C@@H]1O[C@@H](Oc2ccc([N+](=O)[O-])cc2)[C@@H](O)[C@H](O)[C@@H]1O
The series is described as follows: purified protein. To be noted: McIlvaine buffer pH 5.5, 35 °C.

Substrate in series [2]: O=[N+]([O-])c1ccc(O[C@@H]2O[C@@H](CO)[C@H](O)[C@@H](O)[C@@H]2O)cc1
Kind of series: purified protein. To be noted: McIlvaine buffer pH 5.5, 35 °C.

B1: ClAgl29B (Cecembia lonarensis LW9) (protein)
chain: QENKEKDRTPSSKHLTDNILQPKRSSDFMAFKYEYSTVDLYREFSESIMDKARSEVEILESVNRQGRYKPNVESLKLHEVPEWFEDAKLGIFLDWGPWSVPGYAPLKGAEASTGGSYPDWYEFLMDNLYKEYHDEVWGADFRRDDFLPLLTGENFNSEEYMLLAVNSGAKYFVPFTKHHAGWTMWESEFTKRNAVEMGPGRDIYKELIEAGKKYDMKMGFYFSVSEWEYPVIVDQNLSQWDPVKNLAIFQDALGQIPRATPLASYFPALHDRMISGKIPVKDYFADYMIPSFKEAVDKYDPDLVWYDGGWGSPVSISRTMETSAYFYNQAEGKKDVVINNRAGSSLSEDDLIKVRDLMDSGKRDEAMKIYLSGQQLGDYGTPEFTIGDVDIQSKWEVCRSISPAFGYNWQDDEASSLSGEELIKLFVDIVANNGNLLLVISPDGSGKLPDIQKDRLLELGDWMKVNAESIHNTRPWKVQKENDKFFTKSKDGKSLFVHCTNWPGENLIINTPIEEGIKGIKLLGSDINLQFTKASNGNLEIPIPKDFQNNPSLISKYVWTFKIDLN
As to B1, in the series “purified protein [1]”, the Km amounted to 240 ± 11 µM, the kcat amounted to 0.0844 ± 0.0019 s⁻¹ and the kcat/Km was determined as 352 ± 7 M⁻¹ s⁻¹. Further, in “purified protein [2]”, the Km was found to be 1790 ± 180 µM, the kcat was 7.76 ± 0.41 s⁻¹ and the kcat/Km is 4340 ± 220 M⁻¹ s⁻¹.

B2: ClAgl29A (Cecembia lonarensis LW9) (protein)
chain: QVQYNPEKPARPEDHKPFFYKYNTRQLYEKFSDDLMQRAANDRKEIEKINQLGKYKPKKQSLDEHEVPEWFRDAKLGIFLDWGPWSVPGYAPPGSEGDTGGSYPDWYEFLMDFTYKAYHDSIWGEDFRRDDFLPLLHGNNFDSEEYAELAVQAGAKYMVPFARHHAGWTMWESKYTFRNAVEMGPKRDILKELVEASRKRDLKFGFYFSIAEWEYPVITKERVSQWDPYEDMAIFHDGMGLIPRPVPLASYFPARHDRMISGKIPVKDYFGDYMMPLFKEGVDLFDPDLVWYDGGWGTPANSSRVPELSAYFYNQAEGRKEVVINNRAGAYLDDSNLLKFNEVLKSGEHDKLLELYMKAEQIGDYLTPEYSIGNVDINEPWEVCRSISPAFGFNWTDNEENSLSSKELVKMFVGIVANNGNLLLVINPDGSGKLSNVQKDRLLDLGQWLKVNGEGIYSTRPWEIQESEGNFFTKSKNGEFIYIHILDKEKTTIEVPNLNPKNKGAISILGSKEKVLWENSGPITRITIPESFKDERNWPNKYGFTLKVAVK
As to B2, in “purified protein [1]”, the Km is 279 ± 5 µM, the kcat was 0.0658 ± 0.0008 s⁻¹ and the kcat/Km is 236 ± 5 M⁻¹ s⁻¹. Besides, in the series “purified protein [2]”, the Km is 2010 ± 260 µM, the kcat was 2 ± 0.11 s⁻¹ and the kcat/Km was determined as 1000 ± 80 M⁻¹ s⁻¹.

The values are drawn from article PMC9774334.
